Test results published in paper PMC10824877, “Assessment of bioactive peptides derived from laminin-111 as prospective breast cancer-targeting agents” (Amino Acids, 2024).
Entries after “also recorded” stand apart in the source; their conditions may differ. No end group written: not given here. *: point of attachment. 131I = iodine-131 radiolabel on tyrosine, [131I]*

Tests used:
[1] = Radiochemical stability in serum; type: in vitro ADME; conditions: 37 °C, up to 24 h
Experimental: (§1) The radiochemical stability of the radiopeptides was evaluated in two distinct environments: in saline (n = 3), at room temperature and under refrigeration (4–8 °C), by a period of 48 h after the radiolabeling, and in serum (n = 5), at 37 °C, for up to 24 h after incubation. At predefined time intervals, aliquots were extracted and subjected to ascending chromatography, as previously detailed.

[2] = Radiochemical stability in saline; type: physicochemical
Experimental: as §1

[^131I]I-KAFDITYVRLKF: laminin-111 γ1 chain C16 peptide KAFDITYVRLKF radiolabeled with iodine-131 at the central tyrosine residue (KAFDITY(131I)VRLKF)
radiochemical stability in serum [1]: unstable; also recorded: radiochemical instability within the first hour
decrease of radiochemical purity ([2]; after 24 h, room temperature or under refrigeration): approximately 50%
radiochemical purity remaining ([2]; both storage conditions, within the specified time interval): around 50%
